Five molecules from paper PMC9537153 (Nature Communications, 2022) can be followed below.

Test [1] deals with T1, p19, C-terminal 19 kDa fragment of Merozoite Surface Protein 1 (MSP-1), Plasmodium falciparum 3D7 allele, … (Plasmodium falciparum 3D7).
T1 chain: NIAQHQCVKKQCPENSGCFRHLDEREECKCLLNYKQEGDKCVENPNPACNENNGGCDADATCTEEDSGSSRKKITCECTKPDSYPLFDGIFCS

Test [2] addresses T2, full-length Merozoite Surface Protein 1 (MSP-1), Plasmodium falciparum 3D7 allele, non-glycosylated, His6 (Plasmodium falciparum 3D7, UniProt Q8I0U8).
In test [3] the target is T2, full-length Merozoite Surface Protein 1 …. The test can be described thus: ELISA. Conditions: both partners purified.
Test [4] has as its target T3, biotinylated p19 (3D7 allele, non-glycosylated) with C-terminal Avi-tag and His6 tag (Plasmodium falciparum 3D7, enzymatically biotinylated on a C-terminal AviTag).
T3 chain: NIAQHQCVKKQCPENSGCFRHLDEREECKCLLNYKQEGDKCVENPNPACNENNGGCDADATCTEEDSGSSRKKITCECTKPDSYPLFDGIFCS
The test can be described thus: BLI. The conditions noted are these: both partners purified.

Read-outs that look alike come from different tables or passages of the source.

T2 sequence (Q8I0U8 whole entry, looked up): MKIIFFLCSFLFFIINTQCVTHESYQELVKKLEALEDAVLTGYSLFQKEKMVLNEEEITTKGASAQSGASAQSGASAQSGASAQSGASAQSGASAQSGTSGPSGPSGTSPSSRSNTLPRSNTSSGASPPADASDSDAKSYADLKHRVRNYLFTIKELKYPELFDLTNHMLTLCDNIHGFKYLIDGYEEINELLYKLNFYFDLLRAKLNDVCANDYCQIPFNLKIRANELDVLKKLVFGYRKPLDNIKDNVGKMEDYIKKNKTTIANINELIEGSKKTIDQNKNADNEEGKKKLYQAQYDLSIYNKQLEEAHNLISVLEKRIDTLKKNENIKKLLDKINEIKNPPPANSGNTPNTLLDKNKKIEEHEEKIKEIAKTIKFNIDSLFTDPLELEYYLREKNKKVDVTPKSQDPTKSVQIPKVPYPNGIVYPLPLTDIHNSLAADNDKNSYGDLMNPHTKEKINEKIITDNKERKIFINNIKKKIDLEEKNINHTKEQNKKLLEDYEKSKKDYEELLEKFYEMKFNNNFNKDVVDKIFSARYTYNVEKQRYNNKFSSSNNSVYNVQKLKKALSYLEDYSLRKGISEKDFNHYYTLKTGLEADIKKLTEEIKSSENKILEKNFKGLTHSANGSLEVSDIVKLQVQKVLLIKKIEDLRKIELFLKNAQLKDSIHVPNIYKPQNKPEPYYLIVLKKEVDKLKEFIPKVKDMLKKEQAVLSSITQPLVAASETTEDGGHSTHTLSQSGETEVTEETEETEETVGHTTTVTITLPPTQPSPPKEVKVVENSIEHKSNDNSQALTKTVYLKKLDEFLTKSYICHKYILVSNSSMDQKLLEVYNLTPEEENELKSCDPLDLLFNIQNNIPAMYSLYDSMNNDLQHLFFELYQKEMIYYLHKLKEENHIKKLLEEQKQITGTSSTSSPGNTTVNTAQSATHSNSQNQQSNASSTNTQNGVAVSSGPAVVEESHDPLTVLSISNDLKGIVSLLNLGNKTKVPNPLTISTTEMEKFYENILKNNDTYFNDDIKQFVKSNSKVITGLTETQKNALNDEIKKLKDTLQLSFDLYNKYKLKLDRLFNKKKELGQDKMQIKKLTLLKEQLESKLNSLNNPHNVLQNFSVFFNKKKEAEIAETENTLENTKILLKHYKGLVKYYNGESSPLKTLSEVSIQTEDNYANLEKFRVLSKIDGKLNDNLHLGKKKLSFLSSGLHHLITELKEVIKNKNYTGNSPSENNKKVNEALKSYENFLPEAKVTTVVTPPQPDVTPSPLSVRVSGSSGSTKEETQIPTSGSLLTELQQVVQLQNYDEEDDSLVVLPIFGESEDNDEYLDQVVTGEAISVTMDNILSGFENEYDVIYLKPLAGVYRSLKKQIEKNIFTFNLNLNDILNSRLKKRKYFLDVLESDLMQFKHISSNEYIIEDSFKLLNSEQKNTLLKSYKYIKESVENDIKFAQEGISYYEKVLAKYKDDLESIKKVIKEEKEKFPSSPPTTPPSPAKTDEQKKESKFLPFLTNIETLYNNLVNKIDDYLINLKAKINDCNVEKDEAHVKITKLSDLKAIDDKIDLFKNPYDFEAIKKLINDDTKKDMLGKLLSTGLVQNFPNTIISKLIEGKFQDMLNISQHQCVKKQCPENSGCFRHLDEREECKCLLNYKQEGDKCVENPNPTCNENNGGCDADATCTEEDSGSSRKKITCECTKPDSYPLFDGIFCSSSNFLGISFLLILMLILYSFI

B1: 42D7 (antibody, V domains shown)
VH: EVQMVESGGGVVRPGGSLGLSCTASGFTFSNFGIYWVRQAPGKGLEWVAFTRYDGRNKYYGDSVKGRFTISRDNSKNTLYLQMNRLRHEDTGTYYCAKVGATWASEPMDVWGKGTTVMVSS
VL: QSVLTQPPSVSGTPGQRVTIYCSGSTSNVGTNFVYWYKQLPGAAPKLLISRNTQRPSGVPDRFSGSKSGTSAFLAISGLRSEDEASYHCSVWDGDLTGLVFGGGTKLTVL
B1 returned a Kd in test [1] of 6.2 nM. Moreover, the binding result in test [2] was “binds”.

B2: 42C5 (antibody, V domains shown)
VH: EVQLVESGGGVVQPGGSLRLSCAASGFIFSSYSMHWVRQAPGKGLEWVAFIRYDGNRKYYGDSVKGRFTVSRDNSMDTLSLHMTNLRPEDTAIYYCARVGWTWVSEPVDVWGEGATVTVAS
VL: QSVLTQPPSASGTPGQGVSISCSGSRSNVGTNYVYWYQQVPGTAPKLLILRNTQRPSGVPDRFSGSKSGSSASLAISGLRSADEGDYYCAVWDSNLDHVVFGGGTKVTVL
As for B2, the Kd in test [1] was determined as 3.29 nM. In addition, the binding result in test [2] is “binds”.

B3: 42C11 recombinant human IgG1 (hmAb 42C11) (antibody, V domains shown)
VH: QVQLVESGGGVVQPGGSLRLSCAASGFIFSSYSMHWVRQAPGKGLEWVAFIRYDGRREYYADSVKGRFTVSRDNIMNTVFLQMNNLRPEDTATYYCAKVGWTWVSEPADVWGEGATVTVSS
VL: QSVLTQPPSTSGTPGQGVTISCSGSRSNVGTNYVYWYQQIPGRAPKLLINRNTQRPSGVPVRFSGSKSGTTAFLAITGLRSEDEADYFCAVWDGDLSGVIFGGGTKVTVL
notes: IgG1; source: Expi293F cells, heavy- and light-chain plasmids co-transfected 1:1, purified (Protein A agarose, SEC)
With B3, in test [3], the binding result was “binds”.

B4: 42C11 Fab (naturally acquired human monoclonal antibody to p19) (Fab, V domains shown)
VH: QVQLVESGGGVVQPGGSLRLSCAASGFIFSSYSMHWVRQAPGKGLEWVAFIRYDGRREYYADSVKGRFTVSRDNIMNTVFLQMNNLRPEDTATYYCAKVGWTWVSEPADVWGEGATVTVSS
VL: QSVLTQPPSTSGTPGQGVTISCSGSRSNVGTNYVYWYQQIPGRAPKLLINRNTQRPSGVPVRFSGSKSGTTAFLAITGLRSEDEADYFCAVWDGDLSGVIFGGGTKVTVL
notes: source: Expi293F cells, transfected, purified from supernatant (Ni Sepharose Excel, SEC)
For B4, in test [4], binding was put at a Kd of 1.84 nM, the koff stood at 0.00047 s⁻¹ and the kon amounted to 255000 M⁻¹ s⁻¹.

B5: 42A9 (antibody, V domains shown)
VH: QVQVVESGGGVVQPGGSLTLSCRASGFIFSDYGLHWVRQPPGKGLEWVALINYDGRNKYYADSVRGRFTISRDNSKNTLSLQMSSLRSGDTAIYFCARVGAKWASEPMDVWGRGTTVTVSS
VL: QSVLTQPPSASGTPGQRVTISCSGSTSNVGTNFVYWYHQRPGTAPKLLIYRNDERPSGVPDRISGSKSGASASLAISGLRSEDEGDYHCSAWDGSLRRLVFGGGTKLTVL
In test [1], B5 showed a Kd of 0.73 nM. Moreover, the binding result in test [2] is recorded as “binds”.
